T1: human calcitonin receptor (human, UniProt P30988 25-474)
T1 construct: whole, on cells; Assayed as cell membranes of BHK tk'ts 13 cells stably transfected with the human calcitonin receptor (Assay VII); also called hCTR; hCT
T1 sequence (looked up): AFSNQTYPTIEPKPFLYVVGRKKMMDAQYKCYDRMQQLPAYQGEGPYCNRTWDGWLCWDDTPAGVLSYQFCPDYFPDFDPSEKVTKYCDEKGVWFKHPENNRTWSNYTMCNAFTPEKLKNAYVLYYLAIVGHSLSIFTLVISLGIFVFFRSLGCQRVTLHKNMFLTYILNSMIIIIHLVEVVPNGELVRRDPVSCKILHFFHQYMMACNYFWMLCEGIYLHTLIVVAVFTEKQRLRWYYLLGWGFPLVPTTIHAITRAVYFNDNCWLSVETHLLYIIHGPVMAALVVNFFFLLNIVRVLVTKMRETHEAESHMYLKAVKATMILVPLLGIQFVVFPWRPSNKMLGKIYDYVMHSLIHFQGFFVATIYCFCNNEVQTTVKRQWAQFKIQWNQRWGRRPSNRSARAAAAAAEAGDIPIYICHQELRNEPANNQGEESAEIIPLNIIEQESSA

B1: N^ε1-[2-[2-[2-[[2-[2-[2-[[(4S)-4-carboxy-4-(19-carboxynonadecanoylamino)butanoyl]amino]ethoxy]ethoxy]acetyl]amino]ethoxy]ethoxy]acetyl]-[Arg17,Pro21,Pro27,Arg34 … (peptide)
peptide: K([AEEA-AEEA-γGlu-C20 diacid])CNTATCATQRLANFLRHSSPNFGAIPSSTNVGRNTY-NH2
modifications: disulfide 2-7; N-terminus assumed
SMILES: CC[C@H](C)[C@H](NC(=O)[C@H](C)NC(=O)CNC(=O)[C@H](Cc1ccccc1)NC(=O)[C@H](CC(N)=O)NC(=O)[C@@H]1CCCN1C(=O)[C@H](CO)NC(=O)[C@H](CO)NC(=O)[C@H](Cc1c[nH]cn1)NC(=O)[C@H](CCCNC(=N)N)NC(=O)[C@H](CC(C)C)NC(=O)[C@H](Cc1ccccc1)NC(=O)[C@H](CC(N)=O)NC(=O)[C@H](C)NC(=O)[C@H](CC(C)C)NC(=O)[C@H](CCCNC(=N)N)NC(=O)[C@H](CCC(N)=O)NC(=O)[C@@H](NC(=O)[C@H](C)NC(=O)[C@@H]1CSSC[C@H](NC(=O)[C@@H](N)CCCCNC(=O)COCCOCCNC(=O)COCCOCCNC(=O)CC[C@H](NC(=O)CCCCCCCCCCCCCCCCCCC(=O)O)C(=O)O)C(=O)N[C@@H](CC(N)=O)C(=O)N[C@@H]([C@@H](C)O)C(=O)N[C@@H](C)C(=O)N[C@@H]([C@@H](C)O)C(=O)N1)[C@@H](C)O)C(=O)N1CCC[C@H]1C(=O)N[C@@H](CO)C(=O)N[C@@H](CO)C(=O)N[C@H](C(=O)N[C@@H](CC(N)=O)C(=O)N[C@H](C(=O)NCC(=O)N[C@@H](CCCNC(=N)N)C(=O)N[C@@H](CC(N)=O)C(=O)N[C@H](C(=O)N[C@@H](Cc1ccc(O)cc1)C(N)=O)[C@@H](C)O)C(C)C)[C@@H](C)O
notes: also called compound 95
B2: N^ε1-[2-[2-[2-[[2-[2-[2-[[(4S)-4-carboxy-4-(19-carboxynonadecanoylamino)butanoyl]amino]ethoxy]ethoxy]acetyl]amino]ethoxy]ethoxy]acetyl]-[Arg17,Pro21,Pro27,His34 … (peptide)
peptide: K([AEEA-AEEA-γGlu-C20 diacid])CNTATCATQRLANFLRHSSPNFGAIPSSTNVGHNTY-NH2
modifications: disulfide 2-7; N-terminus assumed
SMILES: CC[C@H](C)[C@H](NC(=O)[C@H](C)NC(=O)CNC(=O)[C@H](Cc1ccccc1)NC(=O)[C@H](CC(N)=O)NC(=O)[C@@H]1CCCN1C(=O)[C@H](CO)NC(=O)[C@H](CO)NC(=O)[C@H](Cc1c[nH]cn1)NC(=O)[C@H](CCCNC(=N)N)NC(=O)[C@H](CC(C)C)NC(=O)[C@H](Cc1ccccc1)NC(=O)[C@H](CC(N)=O)NC(=O)[C@H](C)NC(=O)[C@H](CC(C)C)NC(=O)[C@H](CCCNC(=N)N)NC(=O)[C@H](CCC(N)=O)NC(=O)[C@@H](NC(=O)[C@H](C)NC(=O)[C@@H]1CSSC[C@H](NC(=O)[C@@H](N)CCCCNC(=O)COCCOCCNC(=O)COCCOCCNC(=O)CC[C@H](NC(=O)CCCCCCCCCCCCCCCCCCC(=O)O)C(=O)O)C(=O)N[C@@H](CC(N)=O)C(=O)N[C@@H]([C@@H](C)O)C(=O)N[C@@H](C)C(=O)N[C@@H]([C@@H](C)O)C(=O)N1)[C@@H](C)O)C(=O)N1CCC[C@H]1C(=O)N[C@@H](CO)C(=O)N[C@@H](CO)C(=O)N[C@H](C(=O)N[C@@H](CC(N)=O)C(=O)N[C@H](C(=O)NCC(=O)N[C@@H](Cc1c[nH]cn1)C(=O)N[C@@H](CC(N)=O)C(=O)N[C@H](C(=O)N[C@@H](Cc1ccc(O)cc1)C(N)=O)[C@@H](C)O)C(C)C)[C@@H](C)O
notes: also called compound 97
B3: N^ε1-[2-[2-[2-[[2-[2-[2-[[(4S)-4-carboxy-4-(19-carboxynonadecanoylamino)butanoyl]amino]ethoxy]ethoxy]acetyl]amino]ethoxy]ethoxy]acetyl]-[Arg17,Pro21,Pro27,Pro31 … (peptide)
peptide: K([AEEA-AEEA-γGlu-C20 diacid])CNTATCATQRLANFLRHSSPNFGAIPSSTPVGSNTY-NH2
modifications: disulfide 2-7; N-terminus assumed
SMILES: CC[C@H](C)[C@H](NC(=O)[C@H](C)NC(=O)CNC(=O)[C@H](Cc1ccccc1)NC(=O)[C@H](CC(N)=O)NC(=O)[C@@H]1CCCN1C(=O)[C@H](CO)NC(=O)[C@H](CO)NC(=O)[C@H](Cc1c[nH]cn1)NC(=O)[C@H](CCCNC(=N)N)NC(=O)[C@H](CC(C)C)NC(=O)[C@H](Cc1ccccc1)NC(=O)[C@H](CC(N)=O)NC(=O)[C@H](C)NC(=O)[C@H](CC(C)C)NC(=O)[C@H](CCCNC(=N)N)NC(=O)[C@H](CCC(N)=O)NC(=O)[C@@H](NC(=O)[C@H](C)NC(=O)[C@@H]1CSSC[C@H](NC(=O)[C@@H](N)CCCCNC(=O)COCCOCCNC(=O)COCCOCCNC(=O)CC[C@H](NC(=O)CCCCCCCCCCCCCCCCCCC(=O)O)C(=O)O)C(=O)N[C@@H](CC(N)=O)C(=O)N[C@@H]([C@@H](C)O)C(=O)N[C@@H](C)C(=O)N[C@@H]([C@@H](C)O)C(=O)N1)[C@@H](C)O)C(=O)N1CCC[C@H]1C(=O)N[C@@H](CO)C(=O)N[C@@H](CO)C(=O)N[C@H](C(=O)N1CCC[C@H]1C(=O)N[C@H](C(=O)NCC(=O)N[C@@H](CO)C(=O)N[C@@H](CC(N)=O)C(=O)N[C@H](C(=O)N[C@@H](Cc1ccc(O)cc1)C(N)=O)[C@@H](C)O)C(C)C)[C@@H](C)O
notes: also called compound 96
B4: N^ε1-[2-[2-[2-[[2-[2-[2-[[(4S)-4-carboxy-4-(19-carboxynonadecanoylamino)butanoyl]amino]ethoxy]ethoxy]acetyl]amino]ethoxy]ethoxy]acetyl]-[Arg17,Pro21,Pro27,Pro34 … (peptide)
peptide: K([AEEA-AEEA-γGlu-C20 diacid])CNTATCATQRLANFLRHSSPNFGAIPSSTNVGPNTY-NH2
modifications: disulfide 2-7; N-terminus assumed
SMILES: CC[C@H](C)[C@H](NC(=O)[C@H](C)NC(=O)CNC(=O)[C@H](Cc1ccccc1)NC(=O)[C@H](CC(N)=O)NC(=O)[C@@H]1CCCN1C(=O)[C@H](CO)NC(=O)[C@H](CO)NC(=O)[C@H](Cc1c[nH]cn1)NC(=O)[C@H](CCCNC(=N)N)NC(=O)[C@H](CC(C)C)NC(=O)[C@H](Cc1ccccc1)NC(=O)[C@H](CC(N)=O)NC(=O)[C@H](C)NC(=O)[C@H](CC(C)C)NC(=O)[C@H](CCCNC(=N)N)NC(=O)[C@H](CCC(N)=O)NC(=O)[C@@H](NC(=O)[C@H](C)NC(=O)[C@@H]1CSSC[C@H](NC(=O)[C@@H](N)CCCCNC(=O)COCCOCCNC(=O)COCCOCCNC(=O)CC[C@H](NC(=O)CCCCCCCCCCCCCCCCCCC(=O)O)C(=O)O)C(=O)N[C@@H](CC(N)=O)C(=O)N[C@@H]([C@@H](C)O)C(=O)N[C@@H](C)C(=O)N[C@@H]([C@@H](C)O)C(=O)N1)[C@@H](C)O)C(=O)N1CCC[C@H]1C(=O)N[C@@H](CO)C(=O)N[C@@H](CO)C(=O)N[C@H](C(=O)N[C@@H](CC(N)=O)C(=O)N[C@H](C(=O)NCC(=O)N1CCC[C@H]1C(=O)N[C@@H](CC(N)=O)C(=O)N[C@H](C(=O)N[C@@H](Cc1ccc(O)cc1)C(N)=O)[C@@H](C)O)C(C)C)[C@@H](C)O
notes: also called compound 98

Numbered stars: 1 amine (or outer) side, 2 acyl side, 3 side chain; on linkers, the order of the positions; unused ones are H or OH. Bridge positions count the residues as written; N and C are the ends. Side chains are listed from the residue outwards. Ends that are not written are not given here. * marks the point of attachment. C20 diacid = O=C(O)CCCCCCCCCCCCCCCCCCC(=O)*; γGlu = O=C(O)[C@H](CCC(=O)[*:2])N[*:1]; AEEA = NCCOCCOCC(=O)O

The target in one test is T1, human calcitonin receptor. Description: IC50 at hCTR divided by IC50 at hAmylin-R (SPA competition assays V and VII). The method, then: The resulting pellet was resuspended, homogenized and centrifuged (20.000 rpm, 15 min) in a buffer containing 20 mM Na-HEPES and 0.1 mM EDTA (pH 7.4, buffer 2). The resulting pellet was resuspended in buffer 2 and protein concentration was measured (BCA protein Assay, Pierce). The homogenate was kept cold during the whole procedure. The membranes were kept at −80° C. until use. The assay was performed in a 384 well Optiplate (PerkinElmer) in a total volume of 40 ul. Membranes were mixed with SPA beads. Final concentration of membranes 35 ng/μL final and SPA beads was 0.05 mg/well. Test-compounds were dissolved in DMSO and further diluted in assay buffer (50 mM Hepes, pH 7.4, 1 mM CaCl2, 5 mM MgCl₂, 0.1% OA and 0.02% Tween20). […] The final mixture was incubated with shaking at 400 rpm for 120 min at 25° C. prior to centrifugation (1500 rpm, 10 min). Samples were analyzed on TopCounter™ (Packard). The IC₅₀ was calculated using (one site binding competition analysis) GraphPad Prism5 as a measure of receptor affinity.
Membranes were prepared in the following way; the cells were rinsed with PBS and incubated with Versene for approximately 5 min before harvesting. The cells were flushed with PBS and the cell-suspension was centrifuged for 5 min at 1000 rpm. Cells were homogenized (Ultrathurrax) in a buffer containing 20 mM Na-HEPES and 10 mM EDTA (pH 7.4) and centrifuged at 20.000 rpm for 15 min. The resulting pellet was resuspended, homogenized and centrifuged (20.000 rpm, 15 min) in a buffer containing 20 mM Na-HEPES and 0.1 mM EDTA (pH 7.4, buffer 2). The resulting pellet was resuspended in buffer 2 and protein concentration was measured (BCA protein Assay, Pierce). The homogenate was kept cold during the whole procedure. The membranes were kept at −80° C. until use. Assay was performed in a 384 well Optiplate (PerkinElmer) in a total volume of 40 ul. Membranes were mixed with SPA beads.
Regarding B1, the “Ratio hCT/hAmylin binding” value was determined as 63.4.

Consider B2, for which the “Ratio hCT/hAmylin binding” value came out at 104.

Turning to B3, the “Ratio hCT/hAmylin binding” value worked out at 79.6.

In the case of B4, the “Ratio hCT/hAmylin binding” value turned out to be 74.1.

A further test deals with T1, human calcitonin receptor. Kind of test: SPA competition vs 125I-calcitonin, membranes of BHK cells with human calcitonin receptor (Assay VII). The method, then: Membranes were prepared in the following way; the cells were rinsed with PBS and incubated with Versene for approximately 5 min before harvesting. The cells were flushed with PBS and the cell-suspension was centrifuged for 5 min at 1000 rpm. Cells were homogenized (Ultrathurrax) in a buffer containing 20 mM Na-HEPES and 10 mM EDTA (pH 7.4) and centrifuged at 20.000 rpm for 15 min. The resulting pellet was resuspended, homogenized and centrifuged (20.000 rpm, 15 min) in a buffer containing 20 mM Na-HEPES and 0.1 mM EDTA (pH 7.4, buffer 2). The resulting pellet was resuspended in buffer 2 and protein concentration was measured (BCA protein Assay, Pierce). The homogenate was kept cold during the whole procedure. The membranes were kept at −80° C. until use. Assay was performed in a 384 well Optiplate (PerkinElmer) in a total volume of 40 ul. Membranes were mixed with SPA beads. Final concentration of membranes 35 ng/μL final and Final concentration of SPA beads was 0.05 mg/well. Test-compounds were dissolved in DMSO and further diluted in assay buffer (50 mM Hepes, pH 7.4, 1 mM CaCl2, 5 mM MgCl₂, 0.1% OA and 0.02% Tween20). […] The final mixture was incubated for 120 min with shaking at 400 rpm at 25° C. prior to centrifugation (1500 rpm, 10 min). Samples were analyzed on TopCounter™ (Packard). The […] was calculated using (one site binding competition analysis) GraphPad Prism5 as a measure of receptor affinity.
Take B1: the half-maximal inhibitory concentration (IC50) turned out to be 61.3 nM.

As to B2, the IC50 was 58.9 nM.

As to B3, the IC50 is 13.2 nM.

Take B4: the IC50 worked out at 6.74 nM.

For the origin of these results see patent US20140087995A1 (published 2014).
